According to the Human Domainome abundance scans (Beltran et al. 2025):
± gives the uncertainty stated by the source.

Assay: abundance fitness (aPCA) (normalised: wild type 0, dead -1); higher = more abundant; growth selection in yeast, the domain comes from the species named
Details: Homo sapiens

Substance	abundance fitness
NEDD4-like E3 ubiquitin-protein ligase WWP2 P475Y, O00308	-0.984 ± 0.15
NEDD4-like E3 ubiquitin-protein ligase WWP2 R476L, O00308	-0.202 ± 0.037
NEDD4-like E3 ubiquitin-protein ligase WWP2 R493H, O00308	0.065 ± 0.087
NEDD4-like E3 ubiquitin-protein ligase WWP2 M452Y, O00308	-0.159 ± 0.049
NEDD4-like E3 ubiquitin-protein ligase WWP2 F462G, O00308	-0.8 ± 0.054
Transcription factor SOX-11 L90M, P35716	0.343 ± 0.13
NEDD4-like E3 ubiquitin-protein ligase WWP2 P448G, O00308	-0.046 ± 0.054
NEDD4-like E3 ubiquitin-protein ligase WWP2 W450F, O00308	-0.026 ± 0.075
NEDD4-like E3 ubiquitin-protein ligase WWP2 W450V, O00308	-0.175 ± 0.033
NEDD4-like E3 ubiquitin-protein ligase WWP2 P477A, O00308	0.076 ± 0.052
NEDD4-like E3 ubiquitin-protein ligase WWP2 R493C, O00308	-0.399 ± 0.12
NEDD4-like E3 ubiquitin-protein ligase WWP2 Q485P, O00308	-0.184 ± 0.068
NEDD4-like E3 ubiquitin-protein ligase WWP2 F479H, O00308	-0.036 ± 0.083
NEDD4-like E3 ubiquitin-protein ligase WWP2 A445T, O00308	-0.211 ± 0.073
NEDD4-like E3 ubiquitin-protein ligase WWP2 V463I, O00308	-0.165 ± 0.072
NEDD4-like E3 ubiquitin-protein ligase WWP2 Y491D, O00308	0.104 ± 0.074
NEDD4-like E3 ubiquitin-protein ligase WWP2 S481Y, O00308	-0.102 ± 0.063
NEDD4-like E3 ubiquitin-protein ligase WWP2 R460I, O00308	-0.036 ± 0.074
NEDD4-like E3 ubiquitin-protein ligase WWP2 P477E, O00308	0.001 ± 0.05
NEDD4-like E3 ubiquitin-protein ligase WWP2 A445W, O00308	-0.074 ± 0.062
NEDD4-like E3 ubiquitin-protein ligase WWP2 P444L, O00308	0.036 ± 0.053
NEDD4-like E3 ubiquitin-protein ligase WWP2 T483M, O00308	-0.073 ± 0.055
NEDD4-like E3 ubiquitin-protein ligase WWP2 G478M, O00308	-0.08 ± 0.057

Substance	abundance fitness
NEDD4-like E3 ubiquitin-protein ligase WWP2 L446I, O00308	-0.214 ± 0.081
Transcription factor SOX-11 Q70A, P35716	-0.128 ± 0.065
NEDD4-like E3 ubiquitin-protein ligase WWP2 G482K, O00308	-0.037 ± 0.068
NEDD4-like E3 ubiquitin-protein ligase WWP2 V459K, O00308	-0.077 ± 0.063
NEDD4-like E3 ubiquitin-protein ligase WWP2 E457T, O00308	-0.081 ± 0.067
NEDD4-like E3 ubiquitin-protein ligase WWP2 S456R, O00308	-0.142 ± 0.041
Transcription factor SOX-11 E69K, P35716	-0.57 ± 0.29
NEDD4-like E3 ubiquitin-protein ligase WWP2 G458D, O00308	-0.343 ± 0.079
NEDD4-like E3 ubiquitin-protein ligase WWP2 A445Q, O00308	0.031 ± 0.049
NEDD4-like E3 ubiquitin-protein ligase WWP2 P447F, O00308	-0.331 ± 0.088
NEDD4-like E3 ubiquitin-protein ligase WWP2 K453L, O00308	0.034 ± 0.038
NEDD4-like E3 ubiquitin-protein ligase WWP2 P448N, O00308	0.071 ± 0.072
NEDD4-like E3 ubiquitin-protein ligase WWP2 Y454P, O00308	-0.592 ± 0.068
NEDD4-like E3 ubiquitin-protein ligase WWP2 E480A, O00308	-0.08 ± 0.034
Transcription factor SOX-11 A102Q, P35716	-0.628 ± 0.44
NEDD4-like E3 ubiquitin-protein ligase WWP2 M452F, O00308	-0.097 ± 0.05
NEDD4-like E3 ubiquitin-protein ligase WWP2 R476P, O00308	-0.188 ± 0.07
NEDD4-like E3 ubiquitin-protein ligase WWP2 T483W, O00308	-0.163 ± 0.063
NEDD4-like E3 ubiquitin-protein ligase WWP2 V463P, O00308	-1.29 ± 0.47
NEDD4-like E3 ubiquitin-protein ligase WWP2 T455P, O00308	-0.968 ± 0.071
NEDD4-like E3 ubiquitin-protein ligase WWP2 P447R, O00308	-0.316 ± 0.04
NEDD4-like E3 ubiquitin-protein ligase WWP2 P477N, O00308	-0.081 ± 0.053
NEDD4-like E3 ubiquitin-protein ligase WWP2 K473Q, O00308	-0.091 ± 0.082

Substance	abundance fitness
NEDD4-like E3 ubiquitin-protein ligase WWP2 D492E, O00308	0.039 ± 0.065
NEDD4-like E3 ubiquitin-protein ligase WWP2 Q442N, O00308	0.097 ± 0.086
NEDD4-like E3 ubiquitin-protein ligase WWP2 Y461L, O00308	-0.375 ± 0.048
NEDD4-like E3 ubiquitin-protein ligase WWP2 H465W, O00308	-0.422 ± 0.042
NEDD4-like E3 ubiquitin-protein ligase WWP2 Y454C, O00308	-0.037 ± 0.048
NEDD4-like E3 ubiquitin-protein ligase WWP2 S487F, O00308	-0.112 ± 0.057
Transcription factor SOX-11 I96R, P35716	-0.209 ± 0.048
NEDD4-like E3 ubiquitin-protein ligase WWP2 L446Y, O00308	-0.072 ± 0.07
NEDD4-like E3 ubiquitin-protein ligase WWP2 W450H, O00308	-0.464 ± 0.085
NEDD4-like E3 ubiquitin-protein ligase WWP2 Y461E, O00308	-0.577 ± 0.071
NEDD4-like E3 ubiquitin-protein ligase WWP2 G489S, O00308	0.039 ± 0.05
NEDD4-like E3 ubiquitin-protein ligase WWP2 T467A, O00308	-0.098 ± 0.12
NEDD4-like E3 ubiquitin-protein ligase WWP2 F472T, O00308	-0.15 ± 0.065
NEDD4-like E3 ubiquitin-protein ligase WWP2 E480S, O00308	-0.15 ± 0.053
NEDD4-like E3 ubiquitin-protein ligase WWP2 L446S, O00308	-0.601 ± 0.054
NEDD4-like E3 ubiquitin-protein ligase WWP2 G478Q, O00308	0.038 ± 0.048
NEDD4-like E3 ubiquitin-protein ligase WWP2 Q485R, O00308	-0.028 ± 0.038
NEDD4-like E3 ubiquitin-protein ligase WWP2 E457H, O00308	-0.089 ± 0.035
NEDD4-like E3 ubiquitin-protein ligase WWP2 P475D, O00308	-0.867 ± 0.14
NEDD4-like E3 ubiquitin-protein ligase WWP2 Y461R, O00308	-0.762 ± 0.046
Transcription factor SOX-11 S71C, P35716	-0.055 ± 0.052
NEDD4-like E3 ubiquitin-protein ligase WWP2 P477T, O00308	-0.215 ± 0.068
NEDD4-like E3 ubiquitin-protein ligase WWP2 T471C, O00308	-0.59 ± 0.1

Substance	abundance fitness
NEDD4-like E3 ubiquitin-protein ligase WWP2 W450D, O00308	-0.552 ± 0.041
NEDD4-like E3 ubiquitin-protein ligase WWP2 F472N, O00308	-0.373 ± 0.053
NEDD4-like E3 ubiquitin-protein ligase WWP2 T483C, O00308	-0.005 ± 0.063
NEDD4-like E3 ubiquitin-protein ligase WWP2 M440N, O00308	0.283 ± 0.12
NEDD4-like E3 ubiquitin-protein ligase WWP2 D492V, O00308	-0.143 ± 0.049
NEDD4-like E3 ubiquitin-protein ligase WWP2 G489E, O00308	0.04 ± 0.049
NEDD4-like E3 ubiquitin-protein ligase WWP2 L446A, O00308	-0.4 ± 0.037
NEDD4-like E3 ubiquitin-protein ligase WWP2 E443H, O00308	-0.082 ± 0.044
NEDD4-like E3 ubiquitin-protein ligase WWP2 E457G, O00308	-0.116 ± 0.037
NEDD4-like E3 ubiquitin-protein ligase WWP2 N466V, O00308	-0.212 ± 0.048
NEDD4-like E3 ubiquitin-protein ligase WWP2 E457K, O00308	-0.118 ± 0.056
NEDD4-like E3 ubiquitin-protein ligase WWP2 H465R, O00308	-0.278 ± 0.036
NEDD4-like E3 ubiquitin-protein ligase WWP2 R460C, O00308	-0.277 ± 0.074
NEDD4-like E3 ubiquitin-protein ligase WWP2 E480V, O00308	-0.064 ± 0.035
NEDD4-like E3 ubiquitin-protein ligase WWP2 R493Q, O00308	0.132 ± 0.11
NEDD4-like E3 ubiquitin-protein ligase WWP2 Q485M, O00308	-0.038 ± 0.048
NEDD4-like E3 ubiquitin-protein ligase WWP2 D474A, O00308	-0.168 ± 0.037
NEDD4-like E3 ubiquitin-protein ligase WWP2 Q442T, O00308	0.048 ± 0.03
NEDD4-like E3 ubiquitin-protein ligase WWP2 T455E, O00308	-0.563 ± 0.18
NEDD4-like E3 ubiquitin-protein ligase WWP2 R468Y, O00308	-0.251 ± 0.064
NEDD4-like E3 ubiquitin-protein ligase WWP2 E480K, O00308	-0.019 ± 0.05
